# Source: paper PMC314469, “Protein Interaction Networks by Proteome Peptide Scanning” (PLoS Biology, 2004)
# T1: Boi1 SH3 (BOI1_YEAST), P38041
# T1 chain: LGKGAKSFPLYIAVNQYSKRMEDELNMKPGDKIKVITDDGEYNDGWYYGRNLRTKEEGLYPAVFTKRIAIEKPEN
# T2: Boi2 SH3 (BOI2_YEAST), P39969
# T2 chain: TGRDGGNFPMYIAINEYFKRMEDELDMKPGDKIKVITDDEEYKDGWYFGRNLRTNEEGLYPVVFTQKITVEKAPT
# T3: Myo5 SH3 (MYO5_YEAST), Q04439
# T3 chain: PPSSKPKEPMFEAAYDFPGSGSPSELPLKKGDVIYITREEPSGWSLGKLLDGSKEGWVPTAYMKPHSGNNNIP
# T4: Rvs167 SH3 (RV167_YEAST), P39743
# T4 chain: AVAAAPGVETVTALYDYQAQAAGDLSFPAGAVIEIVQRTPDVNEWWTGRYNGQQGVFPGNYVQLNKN
# T5: Yfr024 SH3 (LSB3_YEAST), P43603
# T5 chain: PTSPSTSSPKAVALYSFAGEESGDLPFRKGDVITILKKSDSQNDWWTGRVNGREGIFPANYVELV
# T6: Yhr016c SH3 (YSC84_YEAST), P32793
# T6 chain: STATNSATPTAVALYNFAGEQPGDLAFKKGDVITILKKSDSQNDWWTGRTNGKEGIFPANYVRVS
# Legend:
# Assay in all cases: SPOT array
# [1] = biological target: T1, Boi1 SH3 (BOI1_YEAST), P38041
# [2] = biological target: T2, Boi2 SH3 (BOI2_YEAST), P39969
# [3] = biological target: T3, Myo5 SH3 (MYO5_YEAST), Q04439
# [4] = biological target: T4, Rvs167 SH3 (RV167_YEAST), P39743
# [5] = biological target: Sho1 SH3 (SHO1_YEAST), P40073
# [6] = biological target: T5, Yfr024 SH3 (LSB3_YEAST), P43603
# [7] = biological target: T6, Yhr016c SH3 (YSC84_YEAST), P32793
# Sequence of Sho1 SH3 (SHO1_YEAST), P40073 (P40073 295-366): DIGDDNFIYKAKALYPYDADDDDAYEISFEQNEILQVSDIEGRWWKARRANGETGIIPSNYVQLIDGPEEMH
Binder,"normalised SPOT signal, Boehringer light units (BLU); mean over the file's lines of this peptide [1]","normalised SPOT signal, Boehringer light units (BLU); mean over the file's lines of this peptide [2]","normalised SPOT signal, Boehringer light units (BLU); mean over the file's lines of this peptide [3]","normalised SPOT signal, Boehringer light units (BLU); mean over the file's lines of this peptide [4]","normalised SPOT signal, Boehringer light units (BLU); mean over the file's lines of this peptide [5]","normalised SPOT signal, Boehringer light units (BLU); mean over the file's lines of this peptide [6]","normalised SPOT signal, Boehringer light units (BLU); mean over the file's lines of this peptide [7]"
FYKEKAKPLEPILD [YGL195W 1152-1165],80.5,27.8,87.7,25.4,62.7,0,57
GDHPKGPPPPPPPP [YPL277C 154-167],70,0.3,20200,10.9,6.3,11.5,23.3
GLDLKWEPSTPQRK [YLR460C 162-175],2030,6.1,164,73,62.6,1010,342
GKDHRLAPNGPGMH [YDR333C 253-266],2160,4.7,218,3.1,36.4,29.4,24.5
GDEERFLPNRPHYE [YPR117W 1311-1324],54.3,34.4,126,10.7,37.9,1300,653
GEMVKLTPKNPFYK [YBR214W 193-206],152,23.6,408,73.6,60.2,208,44.4
GIMIKAKPSSPYTY [YLR260W 30-43],69.6,53.5,236,248,62.2,662,197
GFQDRSLPHFPKNS [YOR116C 826-839],88.7,18.7,178,240,5160,180,49.7
